From PMC5135098, “Attenuation of Quorum Sensing Regulated Virulence of Pectobacterium carotovorum subsp. carotovorum through an AHL Lactonase Produced by Lysinibacillus sp. Gs50” (PLoS ONE, 2016) come the findings set out here.

The test system of the data set is CCCCCC(=O)NC1CCOC1=O. Nature of the data set: purified protein. The conditions noted are these: pH 8.0, 50 mM Tris-Cl, 35°C (methods: 30°C, 2 h for saturation curve), no added metal.

Consider AdeH (Lysinibacillus sp. Gs50), for which the Michaelis constant (Km) was found to be 3.089 µM.

By Km is commonly meant the concentration of substrate that gives half-maximal velocity.
